Values quoted from earlier work, collected in patent US9394339B2, “Stabilized formulations of peptides and proteins protecting against non-enzymatic degradation” (Lyotropic Therapeutics, Inc., priority 2007, dated 2016).

details: aqueous solution, pH 7.4, 37° C., Tris-HCl buffer

| Molecule | T1/10 (time to 10% degradation by deamidation) |
| --- | --- |
| Carbonic anhydrase IV (1ZNC): human protein (protein, UniProt P22748 19-284, looked up) Carbonic anhydrase 4: AESHWCYEVQAESSNYPCLVPVKWGGNCQKDRQSPINIVTTKAKVDKKLGRFFFSGYDKKQTWTVQNNGHSVMMLLENKASISGGGLPAPYQAKQLHLHWSDLPYKGSEHSLDGEHFAMEMHIVHEKEKGTSRNVKEAQDPEDEIAVLAFLVEAGTQVNEGFQPLVEALSNIPKPEMSTTMAESSLLDLLPKEEKLRHYFRYLGSLTTPTCDEKVVWTVFREPIQLHREQILAFSQKLYYDKEQTVSMKDNVRPLQQLGQRTVIKS | 11 days |
| Transaldolase (1F05): human protein (protein, UniProt P37837 1-337, looked up) Transaldolase: MSSSPVKRQRMESALDQLKQFTTVVADTGDFHAIDEYKPQDATTNPSLILAAAQMPAYQELVEEAIAYGRKLGGSQEDQIKNAIDKLFVLFGAEILKKIPGRVSTEVDARLSFDKDAMVARARRLIELYKEAGISKDRILIKLSSTWEGIQAGKELEEQHGIHCNMTLLFSFAQAVACAEAGVTLISPFVGRILDWHVANTDKKSYEPLEDPGVKSVTKIYNYYKKFSYKTIVMGASFRNTGEIKALAGCDFLTISPKLLGELLQDNAKLVPVLSAKAAQASDLEKIHLDEKSFRWLHNEDQMAVEKLSDGIRKFAADAVKLERMLTERMFNAENGK | 0.21 days |
| Procathepsin L (1CS8): human protein (protein, UniProt P07711 18-333, looked up, pro-form) pro-form: TLTFDHSLEAQWTKWKAMHNRLYGMNEEGWRRAVWEKNMKMIELHNQEYREGKHSFTMAMNAFGDMTSEEFRQVMNGFQNRKPRKGKVFQEPLFYEAPRSVDWREKGYVTPVKNQGQCGSCWAFSATGALEGQMFRKTGRLISLSEQNLVDCSGPQGNEGCNGGLMDYAFQYVQDNGGLDSEESYPYEATEESCKYNPKYSVANDTGFVDIPKQEKALMKAVATVGPISVAIDAGHESFLFYKEGIYFEPDCSSEDMDHGVLVVGYGFESTESDNNKYWLVKNSWGEEWGMGGYVKMAKDRRNHCGIASAASYPTV | 7.3 days |
| Ribonuclease A (1AFK): human protein (protein, UniProt P61823 27-150, looked up) Ribonuclease pancreatic: KETAAAKFERQHMDSSTSAASSSNYCNQMMKSRNLTKDRCKPVNTFVHESLADVQAVCSQKNVACKNGQTNCYQSYSTMSITDCRETGSSKYPNCAYKTTQANKHIIVACEGNPYVPVHFDASV | 10 days |
| Dihydropteridine reductase (1HDR): human protein (protein, UniProt P09417 2-244, looked up) Dihydropteridine reductase: AAAAAAGEARRVLVYGGRGALGSRCVQAFRARNWWVASVDVVENEEASASIIVKMTDSFTEQADQVTAEVGKLLGEEKVDAILCVAGGWAGGNAKSKSLFKNCDLMWKQSIWTSTISSHLATKHLKEGGLLTLAGAKAALDGTPGMIGYGMAKGAVHQLCQSLAGKNSGMPPGAAAIAVLPVTLDTPMNRKSMPEADFSSWTPLEFLVETFHDWITGKNRPSSGSLIQVVTTEGRTELTPAYF | 15 days |
| Purine nucleoside phosphorylase (1ULA): human protein (protein, UniProt P00491 1-289, looked up) Purine nucleoside …: MENGYTYEDYKNTAEWLLSHTKHRPQVAIICGSGLGGLTDKLTQAQIFDYGEIPNFPRSTVPGHAGRLVFGFLNGRACVMMQGRFHMYEGYPLWKVTFPVRVFHLLGVDTLVVTNAAGGLNPKFEVGDIMLIRDHINLPGFSGQNPLRGPNDERFGDRFPAMSDAYDRTMRQRALSTWKQMGEQRELQEGTYVMVAGPSFETVAECRVLQKLGADAVGMSTVPEVIVARHCGLRVFGFSLITNKVIMDYESLEKANHEEVLAAGKQAAQKLEQFVSILMASIPLPDKAS | 0.27 days |
| Medium chain acyl-coa dehydrogenase (1EGE): human protein (protein, UniProt P11310 26-421, looked up) Medium-chain specific …: KANRQREPGLGFSFEFTEQQKEFQATARKFAREEIIPVAAEYDKTGEYPVPLIRRAWELGLMNTHIPENCGGLGLGTFDACLISEELAYGCTGVQTAIEGNSLGQMPIIIAGNDQQKKKYLGRMTEEPLMCAYCVTEPGAGSDVAGIKTKAEKKGDEYIINGQKMWITNGGKANWYFLLARSDPDPKAPANKAFTGFIVEADTPGIQIGRKELNMGQRCSDTRGIVFEDVKVPKENVLIGDGAGFKVAMGAFDKTRPVVAAGAVGLAQRALDEATKYALERKTFGKLLVEHQAISFMLAEMAMKVELARMSYQRAAWEVDSGRRNTYYASIAKAFAGDIANQLATDAVQILGGNGFNTEYPVEKLMRDAKIYQIYEGTSQIQRLIVAREHIDKYKN | 5.5 days |
| Branched-chain -keto acid dehydrogenase (1DTW): human protein (protein, UniProt P12694 46-445; P21953 51-392, looked up) 2-oxoisovalerate … 1: SSLDDKPQFPGASAEFIDKLEFIQPNVISGIPIYRVMDRQGQIINPSEDPHLPKEKVLKLYKSMTLLNTMDRILYESQRQGRISFYMTNYGEEGTHVGSAAALDNTDLVFGQYREAGVLMYRDYPLELFMAQCYGNISDLGKGRQMPVHYGCKERHFVTISSPLATQIPQAVGAAYAAKRANANRVVICYFGEGAASEGDAHAGFNFAATLECPIIFFCRNNGYAISTPTSEQYRGDGIAARGPGYGIMSIRVDGNDVFAVYNATKEARRRAVAENQPFLIEAMTYRIGHHSTSDDSSAYRSVDEVNYWDKQDHPISRLRHYLLSQGWWDEEQEKAWRKQSRRKVMEAFEQAERKPKPNPNLLFSDVYQEMPAQLRKQQESLARHLQTYGEHYPLDHFDK 2-oxoisovalerate … 2: VAHFTFQPDPEPREYGQTQKMNLFQSVTSALDNSLAKDPTAVIFGEDVAFGGVFRCTVGLRDKYGKDRVFNTPLCEQGIVGFGIGIAVTGATAIAEIQFADYIFPAFDQIVNEAAKYRYRSGDLFNCGSLTIRSPWGCVGHGALYHSQSPEAFFAHCPGIKVVIPRSPFQAKGLLLSCIEDKNPCIFFEPKILYRAAAEEVPIEPYNIPLSQAEVIQEGSDVTLVAWGTQVHVIREVASMAKEKLGVSCEVIDLRTIIPWDVDTICKSVIKTGRLLISHEAPLTGGFASEISSTVQEECFLNLEAPISRVCGYDTPFPHIFEPFYIPDKWKCYDALRKMINY | 12 days |

same assay, conditions: buffer, pH 7.4

| Molecule | T1/2 (half-life, deamidation) |
| --- | --- |
| Fructose-1,6-bisphosphatase (1FTA): human protein (protein, UniProt P09467 2-338, looked up) Fructose-1,6-bisphosphatase 1: ADQAPFDTDVNTLTRFVMEEGRKARGTGELTQLLNSLCTAVKAISSAVRKAGIAHLYGIAGSTNVTGDQVKKLDVLSNDLVMNMLKSSFATCVLVSEEDKHAIIVEPEKRGKYVVCFDPLDGSSNIDCLVSVGTIFGIYRKKSTDEPSEKDALQPGRNLVAAGYALYGSATMLVLAMDCGVNCFMLDPAIGEFILVDKDVKIKKKGKIYSLNEGYARDFDPAVTEYIQRKKFPPDNSAPYGARYVGSMVADVHRTLVYGGIFLYPANKKSPNGKLRLLYECNPMAYVMEKAGGMATTGKEAVLDVIPTDIHQRAPVILGSPDDVLEFLKVYEKHSAQ | 59 days |

same assay, conditions: pH 7.4

| Molecule | T1/10 (time to 10% degradation by deamidation) |
| --- | --- |
| Fructose-1,6-bisphosphatase (1FTA): human protein (protein, UniProt P09467 2-338, looked up) Fructose-1,6-bisphosphatase 1: ADQAPFDTDVNTLTRFVMEEGRKARGTGELTQLLNSLCTAVKAISSAVRKAGIAHLYGIAGSTNVTGDQVKKLDVLSNDLVMNMLKSSFATCVLVSEEDKHAIIVEPEKRGKYVVCFDPLDGSSNIDCLVSVGTIFGIYRKKSTDEPSEKDALQPGRNLVAAGYALYGSATMLVLAMDCGVNCFMLDPAIGEFILVDKDVKIKKKGKIYSLNEGYARDFDPAVTEYIQRKKFPPDNSAPYGARYVGSMVADVHRTLVYGGIFLYPANKKSPNGKLRLLYECNPMAYVMEKAGGMATTGKEAVLDVIPTDIHQRAPVILGSPDDVLEFLKVYEKHSAQ | 9.0 days |
